# Laboratory results published in patent US20180155451A1 (published 2018).
# Residue numbers refer to the chain shown, from its start.
# T1: FcγRIIa R (extracellular domain with a His tag at the C terminus) (human, UniProt P12318 34-217)
# T1 construct: extracellular domain; expressed in FreeStyle293 cells; also called FcgRIIa R; FcγRIIa type R; not shown: His tag at the C terminus
# T1 sequence (looked up): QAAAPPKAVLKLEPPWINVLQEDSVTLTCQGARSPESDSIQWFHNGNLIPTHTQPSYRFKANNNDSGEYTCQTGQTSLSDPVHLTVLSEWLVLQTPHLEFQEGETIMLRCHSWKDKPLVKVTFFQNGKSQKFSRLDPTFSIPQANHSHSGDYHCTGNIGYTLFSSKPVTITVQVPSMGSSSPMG
# T2: FcγRIIa H (human, UniProt P12318 34-217)
# T2 construct: extracellular domain; also called FcgRIIa H type; 2aH; not shown: His tag at the C terminus
# T2 sequence (looked up): T1 sequence (looked up) with R134H
# B1: GpH7-B3 variant P271_08L/GpL16-k0 (antibody, human IgG1, kappa)
# heavy: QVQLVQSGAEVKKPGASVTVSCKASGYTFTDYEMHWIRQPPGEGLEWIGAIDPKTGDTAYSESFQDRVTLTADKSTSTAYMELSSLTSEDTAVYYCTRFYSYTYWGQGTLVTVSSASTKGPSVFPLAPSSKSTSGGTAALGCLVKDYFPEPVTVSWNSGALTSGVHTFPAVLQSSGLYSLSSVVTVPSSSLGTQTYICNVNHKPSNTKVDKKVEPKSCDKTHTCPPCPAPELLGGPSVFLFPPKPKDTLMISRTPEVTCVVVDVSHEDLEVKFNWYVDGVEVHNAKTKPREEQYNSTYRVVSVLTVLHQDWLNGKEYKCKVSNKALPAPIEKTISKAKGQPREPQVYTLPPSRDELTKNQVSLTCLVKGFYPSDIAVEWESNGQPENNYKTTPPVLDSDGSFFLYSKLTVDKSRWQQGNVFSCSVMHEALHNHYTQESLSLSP
# light: DIVMTQSPLSLPVTPGEPASISCQASESLVHSNRNTYLHWYLQKPGQSPQLLIYKVSNRFSGVPDRFSGSGSGTDFTLKISRVEAEDVGVYYCSQNTHVPPTFGQGTKVEIERTVAAPSVFIFPPSDEQLKSGTASVVCLLNNFYPREAKVQWKVDNALQSGNSQESVTEQDSKDSTYSLSSTLTLSKADYEKHKVYACEVTHQGLSSPVTKSFNRGEC
# notes: homodimerized; mutation in both H chains; also called Ho Ab
# B2: GpH7-B3 variant P331_02A/GpL16-k0 (antibody, human IgG1, kappa)
# heavy: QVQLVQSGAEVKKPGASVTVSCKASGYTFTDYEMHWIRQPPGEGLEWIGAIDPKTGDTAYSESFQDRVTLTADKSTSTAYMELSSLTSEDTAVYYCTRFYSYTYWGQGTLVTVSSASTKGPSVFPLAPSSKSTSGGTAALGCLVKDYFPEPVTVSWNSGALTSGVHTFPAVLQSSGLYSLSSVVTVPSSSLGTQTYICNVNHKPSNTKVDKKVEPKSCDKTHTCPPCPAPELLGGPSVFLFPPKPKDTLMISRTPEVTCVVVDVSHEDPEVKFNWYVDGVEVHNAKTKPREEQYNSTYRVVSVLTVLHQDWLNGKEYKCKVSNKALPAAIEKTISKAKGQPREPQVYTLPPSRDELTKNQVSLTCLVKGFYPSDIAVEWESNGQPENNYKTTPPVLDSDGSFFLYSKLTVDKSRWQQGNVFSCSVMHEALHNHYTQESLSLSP
# light: B1 light
# notes: as for B1
# B3: GpH7-B3 variant P331_04F/GpL16-k0 (antibody, human IgG1, kappa)
# heavy: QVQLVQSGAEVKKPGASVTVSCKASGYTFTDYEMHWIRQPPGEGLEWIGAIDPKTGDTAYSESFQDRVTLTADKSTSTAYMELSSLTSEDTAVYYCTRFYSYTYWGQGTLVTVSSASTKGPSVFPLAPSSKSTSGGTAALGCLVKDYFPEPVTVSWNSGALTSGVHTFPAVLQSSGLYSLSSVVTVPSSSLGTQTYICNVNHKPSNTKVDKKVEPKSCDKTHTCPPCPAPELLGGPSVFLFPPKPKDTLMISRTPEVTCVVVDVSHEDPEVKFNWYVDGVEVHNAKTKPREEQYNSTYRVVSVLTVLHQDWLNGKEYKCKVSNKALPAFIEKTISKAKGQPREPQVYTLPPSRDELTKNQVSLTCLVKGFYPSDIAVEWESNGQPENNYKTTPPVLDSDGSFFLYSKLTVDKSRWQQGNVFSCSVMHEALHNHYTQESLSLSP
# light: B1 light
# notes: as for B1
# B4: GpH7-B3 variant P331_15Y/GpL16-k0 (antibody, human IgG1, kappa)
# heavy: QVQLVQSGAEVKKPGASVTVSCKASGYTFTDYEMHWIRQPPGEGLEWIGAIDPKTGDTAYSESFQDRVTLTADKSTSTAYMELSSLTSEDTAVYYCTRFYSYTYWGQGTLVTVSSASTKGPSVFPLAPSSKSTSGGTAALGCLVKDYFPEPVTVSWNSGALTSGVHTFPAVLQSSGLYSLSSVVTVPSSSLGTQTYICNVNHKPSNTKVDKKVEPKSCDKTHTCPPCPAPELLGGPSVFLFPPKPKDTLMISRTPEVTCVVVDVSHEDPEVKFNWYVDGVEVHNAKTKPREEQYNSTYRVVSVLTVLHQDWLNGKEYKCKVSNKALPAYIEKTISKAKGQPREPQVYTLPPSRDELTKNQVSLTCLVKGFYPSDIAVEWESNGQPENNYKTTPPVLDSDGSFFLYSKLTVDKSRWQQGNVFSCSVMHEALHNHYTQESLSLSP
# light: B1 light
# notes: as for B1
# B5: GpH7-B3 variant P331_16H/GpL16-k0 (antibody, human IgG1, kappa)
# heavy: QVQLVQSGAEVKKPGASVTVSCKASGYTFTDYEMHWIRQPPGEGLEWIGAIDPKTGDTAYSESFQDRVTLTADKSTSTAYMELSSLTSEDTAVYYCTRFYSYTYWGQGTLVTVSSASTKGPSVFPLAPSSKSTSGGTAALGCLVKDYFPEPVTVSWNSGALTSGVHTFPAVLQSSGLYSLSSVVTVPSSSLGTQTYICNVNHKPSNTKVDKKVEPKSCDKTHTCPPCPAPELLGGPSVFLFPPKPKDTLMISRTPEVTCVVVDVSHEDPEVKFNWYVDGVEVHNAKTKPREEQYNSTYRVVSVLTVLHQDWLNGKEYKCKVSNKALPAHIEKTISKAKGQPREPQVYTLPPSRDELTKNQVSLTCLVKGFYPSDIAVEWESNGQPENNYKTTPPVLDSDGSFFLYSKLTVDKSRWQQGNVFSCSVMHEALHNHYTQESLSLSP
# light: B1 light
# notes: as for B1
# B6: GpH7-B3 variant P331_20W/GpL16-k0 (antibody, human IgG1, kappa)
# heavy: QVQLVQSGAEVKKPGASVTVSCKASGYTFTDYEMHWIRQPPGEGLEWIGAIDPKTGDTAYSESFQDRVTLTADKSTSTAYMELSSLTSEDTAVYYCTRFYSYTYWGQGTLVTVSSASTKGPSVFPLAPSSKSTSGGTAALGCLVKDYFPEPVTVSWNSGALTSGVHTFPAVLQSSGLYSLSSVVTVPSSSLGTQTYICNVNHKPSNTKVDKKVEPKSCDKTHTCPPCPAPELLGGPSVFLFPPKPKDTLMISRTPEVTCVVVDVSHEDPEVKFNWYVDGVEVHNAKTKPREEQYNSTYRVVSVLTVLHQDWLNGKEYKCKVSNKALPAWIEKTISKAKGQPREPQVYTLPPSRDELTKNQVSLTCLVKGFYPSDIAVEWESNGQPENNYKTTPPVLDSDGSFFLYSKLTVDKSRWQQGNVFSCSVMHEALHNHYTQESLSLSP
# light: B1 light
# notes: as for B1
# B7: GpH7-B3 variant S239_08L/GpL16-k0 (antibody, human IgG1, kappa)
# heavy: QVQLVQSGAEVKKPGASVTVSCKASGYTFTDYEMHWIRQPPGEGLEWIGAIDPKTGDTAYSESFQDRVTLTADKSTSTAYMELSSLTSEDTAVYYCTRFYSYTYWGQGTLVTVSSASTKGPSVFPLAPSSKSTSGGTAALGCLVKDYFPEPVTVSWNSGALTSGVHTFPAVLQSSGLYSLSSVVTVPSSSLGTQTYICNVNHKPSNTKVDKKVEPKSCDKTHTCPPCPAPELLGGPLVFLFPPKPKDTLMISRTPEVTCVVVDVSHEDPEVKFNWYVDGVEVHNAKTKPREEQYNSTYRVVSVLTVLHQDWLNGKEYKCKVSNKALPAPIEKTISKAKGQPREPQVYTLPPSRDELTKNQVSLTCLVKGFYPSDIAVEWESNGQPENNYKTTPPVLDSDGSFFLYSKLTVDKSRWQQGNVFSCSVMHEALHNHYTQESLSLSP
# light: B1 light
# notes: as for B1
# B8: GpH7-B3 variant S239_10E/GpL16-k0 (antibody, human IgG1, kappa)
# heavy: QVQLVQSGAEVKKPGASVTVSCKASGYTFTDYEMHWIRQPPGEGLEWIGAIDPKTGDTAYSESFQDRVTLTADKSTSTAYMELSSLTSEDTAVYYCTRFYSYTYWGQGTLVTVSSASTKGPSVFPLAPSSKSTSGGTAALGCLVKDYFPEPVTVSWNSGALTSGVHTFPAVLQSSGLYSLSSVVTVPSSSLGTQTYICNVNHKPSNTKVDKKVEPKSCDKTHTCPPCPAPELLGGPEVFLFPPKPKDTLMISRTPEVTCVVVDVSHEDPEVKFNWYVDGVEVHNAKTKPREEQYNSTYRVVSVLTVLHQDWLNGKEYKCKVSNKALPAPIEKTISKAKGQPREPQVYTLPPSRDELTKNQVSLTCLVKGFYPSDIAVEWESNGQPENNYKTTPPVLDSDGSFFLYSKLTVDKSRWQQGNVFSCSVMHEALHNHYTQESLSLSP
# light: B1 light
# notes: as for B1
# B9: GpH7-B3 variant S239_18N/GpL16-k0 (antibody, human IgG1, kappa)
# heavy: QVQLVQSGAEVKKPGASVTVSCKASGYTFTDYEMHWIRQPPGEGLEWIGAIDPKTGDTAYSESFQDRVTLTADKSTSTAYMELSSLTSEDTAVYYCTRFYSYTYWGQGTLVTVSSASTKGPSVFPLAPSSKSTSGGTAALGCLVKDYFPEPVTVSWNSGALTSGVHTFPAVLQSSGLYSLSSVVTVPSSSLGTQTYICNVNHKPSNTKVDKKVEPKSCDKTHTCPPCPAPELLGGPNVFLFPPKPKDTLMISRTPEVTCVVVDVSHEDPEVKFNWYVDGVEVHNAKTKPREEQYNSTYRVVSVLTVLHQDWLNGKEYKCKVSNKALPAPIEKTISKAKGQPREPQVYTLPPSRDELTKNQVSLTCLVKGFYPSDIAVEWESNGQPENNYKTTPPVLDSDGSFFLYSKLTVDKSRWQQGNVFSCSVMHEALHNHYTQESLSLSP
# light: B1 light
# notes: as for B1
# B10: GpH7-B3 variant S267_03V/GpL16-k0 (antibody, human IgG1, kappa)
# heavy: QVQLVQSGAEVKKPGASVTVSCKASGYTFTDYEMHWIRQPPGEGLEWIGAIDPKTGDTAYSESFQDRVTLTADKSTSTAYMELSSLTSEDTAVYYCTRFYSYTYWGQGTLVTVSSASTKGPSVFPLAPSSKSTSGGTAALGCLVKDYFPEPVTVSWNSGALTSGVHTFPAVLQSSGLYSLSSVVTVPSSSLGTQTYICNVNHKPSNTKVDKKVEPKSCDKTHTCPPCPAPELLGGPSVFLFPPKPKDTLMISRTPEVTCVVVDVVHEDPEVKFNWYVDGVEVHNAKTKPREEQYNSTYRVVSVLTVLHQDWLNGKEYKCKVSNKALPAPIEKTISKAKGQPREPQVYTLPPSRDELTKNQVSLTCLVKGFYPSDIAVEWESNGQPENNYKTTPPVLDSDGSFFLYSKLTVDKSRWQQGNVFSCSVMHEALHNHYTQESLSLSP
# light: B1 light
# notes: as for B1
# B11: GpH7-B3 variant S267_06M/GpL16-k0 (antibody, human IgG1, kappa)
# heavy: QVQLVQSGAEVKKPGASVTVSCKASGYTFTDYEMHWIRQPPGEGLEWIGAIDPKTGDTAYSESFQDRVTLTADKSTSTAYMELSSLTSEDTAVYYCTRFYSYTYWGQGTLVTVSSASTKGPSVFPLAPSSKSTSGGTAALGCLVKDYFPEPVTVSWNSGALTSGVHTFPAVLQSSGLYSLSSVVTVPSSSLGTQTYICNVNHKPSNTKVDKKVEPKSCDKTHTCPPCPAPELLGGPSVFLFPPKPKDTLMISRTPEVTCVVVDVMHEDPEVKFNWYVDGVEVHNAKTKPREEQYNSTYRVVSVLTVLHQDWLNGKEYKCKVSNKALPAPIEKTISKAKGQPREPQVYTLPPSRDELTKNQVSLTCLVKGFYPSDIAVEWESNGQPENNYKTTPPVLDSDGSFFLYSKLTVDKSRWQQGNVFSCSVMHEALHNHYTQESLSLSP
# light: B1 light
# notes: as for B1
# B12: GpH7-A5/GpH7-B3 variant S267_02A/GpL16-k0 (antibody, human IgG1, kappa)
# heavy 1: not shown
# heavy 2: not shown
# light: B1 light
# notes: also called He Ab S267_02A
# B13: GpH7-A5/GpH7-B3 variant S324_02A/GpL16-k0 (antibody, human IgG1, kappa)
# heavy 1: not shown
# heavy 2: not shown
# light: B1 light
# notes: also called He Ab S324_02A
# B14: GpH7-A5/GpH7-B3 variant S324_06M/GpL16-k0 (antibody, human IgG1, kappa)
# heavy 1: not shown
# heavy 2: not shown
# light: B1 light
# notes: also called He Ab S324_06M
# B15: GpH7-A5/GpH7-B3 variant S324_09D/GpL16-k0 (antibody, human IgG1, kappa)
# heavy 1: not shown
# heavy 2: not shown
# light: B1 light
# notes: also called He Ab S324_09D
# B16: GpH7-A5/GpH7-B3 variant S324_10E/GpL16-k0 (antibody, human IgG1, kappa)
# heavy 1: not shown
# heavy 2: not shown
# light: B1 light
# notes: also called He Ab S324_10E
# B17: GpH7-A5/GpH7-B3 variant S324_20W/GpL16-k0 (antibody, human IgG1, kappa)
# heavy 1: not shown
# heavy 2: not shown
# light: B1 light
# notes: also called He Ab S324_20W
# B18: GpH7-A5/GpH7-B3 variant S337_09D/GpL16-k0 (antibody, human IgG1, kappa)
# heavy 1: not shown
# heavy 2: not shown
# light: B1 light
# notes: also called He Ab S337_09D
# B19: GpH7-A5/GpH7-B3 variant S337_10E/GpL16-k0 (antibody, human IgG1, kappa)
# heavy 1: not shown
# heavy 2: not shown
# light: B1 light
# notes: also called He Ab S337_10E
# B20: GpH7-A5/GpH7-B3 variant S337_14T/GpL16-k0 (antibody, human IgG1, kappa)
# heavy 1: not shown
# heavy 2: not shown
# light: B1 light
# notes: also called He Ab S337_14T
# B21: GpH7-A5/GpH7-B3 variant S337_16H/GpL16-k0 (antibody, human IgG1, kappa)
# heavy 1: not shown
# heavy 2: not shown
# light: B1 light
# notes: also called He Ab S337_16H
# B22: GpH7-A5/GpH7-B3 variant T335_01G/GpL16-k0 (antibody, human IgG1, kappa)
# heavy 1: not shown
# heavy 2: not shown
# light: B1 light
# notes: also called He Ab T335_01G
# B23: GpH7-A5/GpH7-B3 variant T335_07I/GpL16-k0 (antibody, human IgG1, kappa)
# heavy 1: not shown
# heavy 2: not shown
# light: B1 light
# notes: also called He Ab T335_07I
# B24: GpH7-A5/GpH7-B3 variant T335_10E/GpL16-k0 (antibody, human IgG1, kappa)
# heavy 1: not shown
# heavy 2: not shown
# light: B1 light
# notes: also called He Ab T335_10E
# B25: GpH7-A5/GpH7-B3 variant T335_13S/GpL16-k0 (antibody, human IgG1, kappa)
# heavy 1: not shown
# heavy 2: not shown
# light: B1 light
# notes: also called He Ab T335_13S
# B26: GpH7-A5/GpH7-B3 variant T335_15Y/GpL16-k0 (antibody, human IgG1, kappa)
# heavy 1: not shown
# heavy 2: not shown
# light: B1 light
# notes: also called He Ab T335_15Y
# B27: GpH7-A5/GpH7-B3 variant T335_16H/GpL16-k0 (antibody, human IgG1, kappa)
# heavy 1: not shown
# heavy 2: not shown
# light: B1 light
# notes: also called He Ab T335_16H
# B28: GpH7-A5/GpH7-B3 variant T335_19Q/GpL16-k0 (antibody, human IgG1, kappa)
# heavy 1: not shown
# heavy 2: not shown
# light: B1 light
# notes: also called He Ab T335_19Q
# Biological target: T1, FcγRIIa R (extracellular domain with a …)
# Experiment: SPR Biacore, relative binding
row,Ho/Con_2aR,Binder
1,102 % of GpH7-B3/GpL16-k0 (=100),B1
2,102 % of GpH7-B3/GpL16-k0 (=100),B2
3,106 % of GpH7-B3/GpL16-k0 (=100),B3
4,105 % of GpH7-B3/GpL16-k0 (=100),B4
5,100 % of GpH7-B3/GpL16-k0 (=100),B5
6,102 % of GpH7-B3/GpL16-k0 (=100),B6
7,106 % of GpH7-B3/GpL16-k0 (=100),B7
8,122 % of GpH7-B3/GpL16-k0 (=100),B8
9,103 % of GpH7-B3/GpL16-k0 (=100),B9
10,115 % of GpH7-B3/GpL16-k0 (=100),B10
11,102 % of GpH7-B3/GpL16-k0 (=100),B11

# Biological target: T2, FcγRIIa H
# Experiment: SPR Biacore, relative binding
row,He/Con_2aH,Binder
1,120 % of GpH7-A5/GpH7-B3/GpL16-k0 (=100),B12
2,102 % of GpH7-A5/GpH7-B3/GpL16-k0 (=100),B13
3,117 % of GpH7-A5/GpH7-B3/GpL16-k0 (=100),B14
4,106 % of GpH7-A5/GpH7-B3/GpL16-k0 (=100),B15
5,103 % of GpH7-A5/GpH7-B3/GpL16-k0 (=100),B16
6,103 % of GpH7-A5/GpH7-B3/GpL16-k0 (=100),B17
7,107 % of GpH7-A5/GpH7-B3/GpL16-k0 (=100),B18
8,102 % of GpH7-A5/GpH7-B3/GpL16-k0 (=100),B19
9,103 % of GpH7-A5/GpH7-B3/GpL16-k0 (=100),B20
10,101 % of GpH7-A5/GpH7-B3/GpL16-k0 (=100),B21
11,103 % of GpH7-A5/GpH7-B3/GpL16-k0 (=100),B22
12,108 % of GpH7-A5/GpH7-B3/GpL16-k0 (=100),B23
13,108 % of GpH7-A5/GpH7-B3/GpL16-k0 (=100),B24
14,106 % of GpH7-A5/GpH7-B3/GpL16-k0 (=100),B25
15,106 % of GpH7-A5/GpH7-B3/GpL16-k0 (=100),B26
16,105 % of GpH7-A5/GpH7-B3/GpL16-k0 (=100),B27
17,103 % of GpH7-A5/GpH7-B3/GpL16-k0 (=100),B28
